According to paper PMC7315409 (Science translational medicine, 2020):

Target: T1, recombinant high mobility group box 1 (HMGB1) (human, UniProt P09429 1-215)
T1 sequence (looked up): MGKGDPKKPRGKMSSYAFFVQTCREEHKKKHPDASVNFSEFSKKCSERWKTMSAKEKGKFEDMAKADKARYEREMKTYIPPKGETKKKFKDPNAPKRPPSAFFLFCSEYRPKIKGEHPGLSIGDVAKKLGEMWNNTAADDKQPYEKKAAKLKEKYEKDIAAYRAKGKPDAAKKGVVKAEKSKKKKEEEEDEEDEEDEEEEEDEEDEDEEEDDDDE
Assay: radioligand binding

- IC50: 500 to 550 nM
B1: purified syndecan-1 (natural protein)
chain: QIVAVNVPPEDQDGSGDDSDNFSGSGTGALPDTLSRQTPSTWKDVWLLTATPTAPEPTSSNTETAFTSVLPAGEKPEEGEPVLHVEAEPGFTARDKEKEVTTRPRETVQLPITQRASTVRVTTAQAAVTSHPHGGMQPGLHETSAPTAPGQPDHQPPRVEGGGTSVIKEVVEDGTANQLPAGEGSGEQDFTFETSGENTAVAAVEPGLRNQPPVDEGATGASQSLLDRKEVLG
modifications: heparan sulfate (HS) polysaccharide side chains on the core protein
